Changes are numbered by the printed parent chain. Names may count otherwise.

T1: human FcγRIIaH extracellular domain, C-terminal His-tag (human, UniProt P12318 34-217)
T1 construct: also called human FcγRIIa (type H); FcgRIIaH
T1 sequence: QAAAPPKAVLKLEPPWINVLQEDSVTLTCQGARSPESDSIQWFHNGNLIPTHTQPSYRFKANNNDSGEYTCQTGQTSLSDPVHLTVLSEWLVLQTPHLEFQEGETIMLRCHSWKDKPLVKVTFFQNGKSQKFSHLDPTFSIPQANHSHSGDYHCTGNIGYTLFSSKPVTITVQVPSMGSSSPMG

T2: human FcγRIIaR extracellular domain, C-terminal His-tag (human, UniProt P12318 34-217)
T2 construct: also called human FcγRIIa (type R); FcgRIIaR
T2 chain: T1 sequence with H134R

T3: human FcγRIIb extracellular domain, C-terminal His-tag (human, UniProt P31994 43-217)
T3 construct: also called FcgRIIb (human)
T3 sequence: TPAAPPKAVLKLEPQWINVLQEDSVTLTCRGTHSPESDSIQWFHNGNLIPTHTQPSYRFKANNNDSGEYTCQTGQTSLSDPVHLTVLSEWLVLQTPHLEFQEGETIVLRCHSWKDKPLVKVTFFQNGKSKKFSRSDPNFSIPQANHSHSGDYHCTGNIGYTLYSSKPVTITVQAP

B1: GpH7-B3 variant G236N/GpL16-k0 (antibody, human IgG1, kappa)
heavy: not shown
light: DIVMTQSPLSLPVTPGEPASISCQASESLVHSNRNTYLHWYLQKPGQSPQLLIYKVSNRFSGVPDRFSGSGSGTDFTLKISRVEAEDVGVYYCSQNTHVPPTFGQGTKVEIERTVAAPSVFIFPPSDEQLKSGTASVVCLLNNFYPREAKVQWKVDNALQSGNSQESVTEQDSKDSTYSLSSTLTLSKADYEKHKVYACEVTHQGLSSPVTKSFNRGEC
B2: GpH7-B3 variant S267A/GpL16-k0 (antibody, human IgG1, kappa)
heavy: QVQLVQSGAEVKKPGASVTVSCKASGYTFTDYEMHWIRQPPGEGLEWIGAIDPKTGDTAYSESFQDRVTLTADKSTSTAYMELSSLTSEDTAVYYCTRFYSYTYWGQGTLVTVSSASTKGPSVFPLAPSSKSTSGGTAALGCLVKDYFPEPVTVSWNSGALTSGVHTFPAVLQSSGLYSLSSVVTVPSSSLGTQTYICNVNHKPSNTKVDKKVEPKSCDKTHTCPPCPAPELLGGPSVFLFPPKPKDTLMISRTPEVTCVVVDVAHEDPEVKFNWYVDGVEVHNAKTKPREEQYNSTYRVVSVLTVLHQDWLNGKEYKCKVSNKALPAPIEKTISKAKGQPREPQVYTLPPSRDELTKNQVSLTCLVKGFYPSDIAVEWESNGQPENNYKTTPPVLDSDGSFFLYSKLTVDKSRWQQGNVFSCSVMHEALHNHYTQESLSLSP
light: B1 light
B3: GpH7-B3 variant H268D/GpL16-k0 (antibody, human IgG1, kappa)
heavy: not shown
light: B1 light
B4: GpH7-B3 variant G236A/GpL16-k0 (antibody, human IgG1, kappa)
heavy: not shown
light: B1 light
B5: GpH7-B3 variant P238Q/GpL16-k0 (antibody, human IgG1, kappa)
heavy: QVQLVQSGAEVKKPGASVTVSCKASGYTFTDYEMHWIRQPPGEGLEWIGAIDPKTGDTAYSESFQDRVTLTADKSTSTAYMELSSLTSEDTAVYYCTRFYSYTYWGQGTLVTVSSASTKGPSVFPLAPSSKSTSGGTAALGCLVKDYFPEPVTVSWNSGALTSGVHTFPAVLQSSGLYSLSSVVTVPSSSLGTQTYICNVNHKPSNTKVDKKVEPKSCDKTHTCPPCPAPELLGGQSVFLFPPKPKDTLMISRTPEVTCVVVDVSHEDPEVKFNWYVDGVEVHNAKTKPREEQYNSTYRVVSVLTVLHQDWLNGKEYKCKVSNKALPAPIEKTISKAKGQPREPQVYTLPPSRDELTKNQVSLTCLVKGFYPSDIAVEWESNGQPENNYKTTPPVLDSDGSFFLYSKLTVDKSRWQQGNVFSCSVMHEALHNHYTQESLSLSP
light: B1 light
B6: GpH7-B3 variant G237D/GpL16-k0 (antibody, human IgG1, kappa)
heavy: not shown
light: B1 light
B7: GpH7-B3 variant K326T/GpL16-k0 (antibody, human IgG1, kappa)
heavy: not shown
light: B1 light
B8: GpH7-B3 variant L235W/GpL16-k0 (antibody, human IgG1, kappa)
heavy: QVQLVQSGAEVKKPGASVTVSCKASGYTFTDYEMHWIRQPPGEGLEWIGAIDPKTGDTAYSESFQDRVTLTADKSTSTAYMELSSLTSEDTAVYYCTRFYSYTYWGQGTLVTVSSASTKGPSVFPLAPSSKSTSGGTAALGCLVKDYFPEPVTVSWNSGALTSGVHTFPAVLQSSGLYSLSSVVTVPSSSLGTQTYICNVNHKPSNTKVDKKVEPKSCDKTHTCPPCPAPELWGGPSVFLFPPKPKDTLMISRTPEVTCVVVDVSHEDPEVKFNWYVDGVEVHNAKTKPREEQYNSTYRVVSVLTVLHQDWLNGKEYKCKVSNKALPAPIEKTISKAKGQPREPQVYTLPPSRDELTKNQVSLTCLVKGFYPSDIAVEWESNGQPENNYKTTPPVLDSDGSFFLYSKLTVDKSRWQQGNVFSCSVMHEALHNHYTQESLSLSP
light: B1 light
B9: GpH7-B3 variant K334Y/GpL16-k0 (antibody, human IgG1, kappa)
heavy: not shown
light: B1 light
B10: GpH7-B3 variant S239I/GpL16-k0 (antibody, human IgG1, kappa)
heavy: not shown
light: B1 light
B11: GpH7-B3 variant K334I/GpL16-k0 (antibody, human IgG1, kappa)
heavy: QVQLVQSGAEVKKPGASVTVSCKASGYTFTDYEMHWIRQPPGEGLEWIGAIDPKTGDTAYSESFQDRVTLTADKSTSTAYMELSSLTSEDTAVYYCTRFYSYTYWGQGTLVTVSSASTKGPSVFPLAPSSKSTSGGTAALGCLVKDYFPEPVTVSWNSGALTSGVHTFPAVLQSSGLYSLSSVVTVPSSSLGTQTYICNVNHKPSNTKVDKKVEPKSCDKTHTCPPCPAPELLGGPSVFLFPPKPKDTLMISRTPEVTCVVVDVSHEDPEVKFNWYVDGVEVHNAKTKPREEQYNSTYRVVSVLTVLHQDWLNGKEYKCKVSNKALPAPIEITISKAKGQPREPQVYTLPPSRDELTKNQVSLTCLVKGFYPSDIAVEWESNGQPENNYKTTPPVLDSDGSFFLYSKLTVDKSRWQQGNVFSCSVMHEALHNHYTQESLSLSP
light: B1 light
B12: GpH7-B3 variant A327I/GpL16-k0 (antibody, human IgG1, kappa)
heavy: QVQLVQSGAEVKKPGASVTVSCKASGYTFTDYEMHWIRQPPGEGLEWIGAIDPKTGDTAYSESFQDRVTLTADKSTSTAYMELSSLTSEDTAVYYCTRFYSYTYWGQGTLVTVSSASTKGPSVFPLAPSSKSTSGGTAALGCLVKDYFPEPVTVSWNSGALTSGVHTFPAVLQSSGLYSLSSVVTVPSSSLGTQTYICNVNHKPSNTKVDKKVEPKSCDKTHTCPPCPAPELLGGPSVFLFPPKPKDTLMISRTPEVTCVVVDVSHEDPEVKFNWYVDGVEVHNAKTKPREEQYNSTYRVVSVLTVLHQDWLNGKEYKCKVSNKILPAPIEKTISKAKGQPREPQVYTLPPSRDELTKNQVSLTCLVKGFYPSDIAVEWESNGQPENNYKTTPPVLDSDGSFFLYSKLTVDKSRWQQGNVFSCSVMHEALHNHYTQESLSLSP
light: B1 light
B13: GpH7-B3 variant I332D/GpL16-k0 (antibody, human IgG1, kappa)
heavy: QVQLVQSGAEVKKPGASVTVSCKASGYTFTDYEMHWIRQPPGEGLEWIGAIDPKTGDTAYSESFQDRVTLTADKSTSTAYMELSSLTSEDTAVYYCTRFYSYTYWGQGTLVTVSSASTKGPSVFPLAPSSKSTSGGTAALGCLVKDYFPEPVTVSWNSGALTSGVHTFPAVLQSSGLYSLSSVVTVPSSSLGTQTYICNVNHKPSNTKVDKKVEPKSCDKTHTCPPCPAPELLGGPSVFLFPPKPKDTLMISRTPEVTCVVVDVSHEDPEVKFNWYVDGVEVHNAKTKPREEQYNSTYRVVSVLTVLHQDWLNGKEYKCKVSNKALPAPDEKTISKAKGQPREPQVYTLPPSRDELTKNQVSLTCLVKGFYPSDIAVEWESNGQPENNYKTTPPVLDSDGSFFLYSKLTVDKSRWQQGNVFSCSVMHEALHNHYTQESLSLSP
light: B1 light
B14: GpH7-B3 variant L328T/GpL16-k0 (antibody, human IgG1, kappa)
heavy: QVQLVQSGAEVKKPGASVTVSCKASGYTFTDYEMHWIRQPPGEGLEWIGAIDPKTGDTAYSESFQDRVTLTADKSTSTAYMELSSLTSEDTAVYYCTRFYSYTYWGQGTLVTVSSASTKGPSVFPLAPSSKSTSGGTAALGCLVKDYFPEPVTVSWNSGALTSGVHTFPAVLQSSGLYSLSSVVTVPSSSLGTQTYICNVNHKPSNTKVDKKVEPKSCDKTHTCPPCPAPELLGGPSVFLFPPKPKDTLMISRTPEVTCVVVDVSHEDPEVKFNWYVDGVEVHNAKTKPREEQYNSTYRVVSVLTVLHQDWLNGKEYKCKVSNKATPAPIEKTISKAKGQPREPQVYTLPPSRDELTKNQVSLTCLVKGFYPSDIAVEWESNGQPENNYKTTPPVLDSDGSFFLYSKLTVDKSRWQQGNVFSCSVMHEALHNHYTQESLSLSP
light: B1 light
B15: GpH7-B3 variant S239V/GpL16-k0 (antibody, human IgG1, kappa)
heavy: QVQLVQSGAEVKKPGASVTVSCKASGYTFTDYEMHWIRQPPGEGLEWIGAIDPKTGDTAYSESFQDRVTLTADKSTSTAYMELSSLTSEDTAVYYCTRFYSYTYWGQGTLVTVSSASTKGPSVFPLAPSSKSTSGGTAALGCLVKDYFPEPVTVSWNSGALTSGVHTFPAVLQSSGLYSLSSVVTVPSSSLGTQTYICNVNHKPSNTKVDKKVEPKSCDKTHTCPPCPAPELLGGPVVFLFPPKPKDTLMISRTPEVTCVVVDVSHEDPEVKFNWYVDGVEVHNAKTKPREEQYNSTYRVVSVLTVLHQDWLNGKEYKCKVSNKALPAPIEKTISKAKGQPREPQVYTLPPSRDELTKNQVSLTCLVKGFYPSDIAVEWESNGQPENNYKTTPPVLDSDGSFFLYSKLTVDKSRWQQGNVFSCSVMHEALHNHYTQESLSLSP
light: B1 light
B16: GpH7-B3 variant L234Y/GpL16-k0 (antibody, human IgG1, kappa)
heavy: not shown
light: B1 light
B17: GpH7-B3 variant P331E/GpL16-k0 (antibody, human IgG1, kappa)
heavy: not shown
light: B1 light
B18: GpH7-B3 variant K334D/GpL16-k0 (antibody, human IgG1, kappa)
heavy: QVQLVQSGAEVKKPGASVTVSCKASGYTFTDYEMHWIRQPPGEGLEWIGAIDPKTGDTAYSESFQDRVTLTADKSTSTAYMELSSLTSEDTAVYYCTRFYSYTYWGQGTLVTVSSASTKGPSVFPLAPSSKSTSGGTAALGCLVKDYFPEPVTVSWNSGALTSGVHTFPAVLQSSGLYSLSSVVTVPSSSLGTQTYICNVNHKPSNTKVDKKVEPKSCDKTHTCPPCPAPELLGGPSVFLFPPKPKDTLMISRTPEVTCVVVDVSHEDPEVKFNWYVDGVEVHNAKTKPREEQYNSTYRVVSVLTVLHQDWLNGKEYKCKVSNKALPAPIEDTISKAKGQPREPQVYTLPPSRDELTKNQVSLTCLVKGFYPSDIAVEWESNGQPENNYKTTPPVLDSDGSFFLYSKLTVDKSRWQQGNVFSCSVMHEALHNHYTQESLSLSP
light: B1 light
B19: GpH7-B3 variant H268E/GpL16-k0 (antibody, human IgG1, kappa)
heavy: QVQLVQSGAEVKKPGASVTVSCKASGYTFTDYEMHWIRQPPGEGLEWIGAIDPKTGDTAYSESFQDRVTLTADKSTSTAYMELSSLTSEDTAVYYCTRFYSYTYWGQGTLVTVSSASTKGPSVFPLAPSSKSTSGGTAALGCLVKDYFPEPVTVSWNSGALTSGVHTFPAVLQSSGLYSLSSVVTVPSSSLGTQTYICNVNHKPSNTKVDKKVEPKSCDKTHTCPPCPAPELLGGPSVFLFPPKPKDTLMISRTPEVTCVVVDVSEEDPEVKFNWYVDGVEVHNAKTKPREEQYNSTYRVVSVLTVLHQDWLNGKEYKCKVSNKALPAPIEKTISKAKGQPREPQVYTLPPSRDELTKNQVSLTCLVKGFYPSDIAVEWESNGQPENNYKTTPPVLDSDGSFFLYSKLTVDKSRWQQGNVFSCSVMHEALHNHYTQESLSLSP
light: B1 light
B20: GpH7-B3 variant G236E/GpL16-k0 (antibody, human IgG1, kappa)
heavy: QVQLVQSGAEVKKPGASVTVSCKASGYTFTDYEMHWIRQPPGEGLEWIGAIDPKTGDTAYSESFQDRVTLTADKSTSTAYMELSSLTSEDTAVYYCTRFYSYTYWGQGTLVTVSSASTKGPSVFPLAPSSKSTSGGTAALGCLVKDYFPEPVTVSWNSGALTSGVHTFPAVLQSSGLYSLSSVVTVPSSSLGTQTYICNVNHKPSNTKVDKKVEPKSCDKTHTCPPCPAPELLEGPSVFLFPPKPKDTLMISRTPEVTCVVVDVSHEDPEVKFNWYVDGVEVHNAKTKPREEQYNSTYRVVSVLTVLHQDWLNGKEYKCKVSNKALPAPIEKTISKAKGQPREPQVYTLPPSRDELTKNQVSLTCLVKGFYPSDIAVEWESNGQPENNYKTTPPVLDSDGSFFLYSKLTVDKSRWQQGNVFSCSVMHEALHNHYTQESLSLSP
light: B1 light
B21: GpH7-B3 variant K334V/GpL16-k0 (antibody, human IgG1, kappa)
heavy: not shown
light: B1 light
B22: GpH7-B3 variant P271G/GpL16-k0 (antibody, human IgG1, kappa)
heavy: not shown
light: B1 light
B23: GpH7-B3 variant G236S/GpL16-k0 (antibody, human IgG1, kappa)
heavy: not shown
light: B1 light
B24: GpH7-B3 variant N325E/GpL16-k0 (antibody, human IgG1, kappa)
heavy: not shown
light: B1 light
B25: GpH7-B3 variant Q295L/GpL16-k0 (antibody, human IgG1, kappa)
heavy: not shown
light: B1 light
B26: GpH7-B3 variant S239N/GpL16-k0 (antibody, human IgG1, kappa)
heavy: not shown
light: B1 light
B27: GpH7-B3 variant K334M/GpL16-k0 (antibody, human IgG1, kappa)
heavy: not shown
light: B1 light
B28: GpH7-B3 variant G236D/GpL16-k0 (antibody, human IgG1, kappa)
heavy: not shown
light: B1 light
B29: GpH7-B3 variant L234W/GpL16-k0 (antibody, human IgG1, kappa)
heavy: not shown
light: B1 light

The target in one test is T1, human FcγRIIaH extracellular domain, …. Description: SPR 25C; FcgR bound per captured antibody, relative to parent B3.
As to B1, the “Binding to human FcgRs (parent B3 = 100)” value worked out at 54 parent B3 = 100.
B2: the “Binding to human FcgRs (parent B3 = 100)” value was 176 parent B3 = 100.
Still for that read-out and setting: the value for B3 was 173 parent B3 = 100; that for B4 was 165 parent B3 = 100.
On the same count and under the same terms, the same measure for B5: 19 parent B3 = 100.
Same read-out and setting: the same measure for B6: 74 parent B3 = 100; for B7: 138 parent B3 = 100.
With B8, the “Binding to human FcgRs (parent B3 = 100)” value came out at 136 parent B3 = 100.
For B9, the “Binding to human FcgRs (parent B3 = 100)” value turned out to be 157 parent B3 = 100.
On to B10, for which the “Binding to human FcgRs (parent B3 = 100)” value was found to be 82 parent B3 = 100.
Regarding B11, the “Binding to human FcgRs (parent B3 = 100)” value is 169 parent B3 = 100.
Still for that read-out and setting: the same measure for B12: 37 parent B3 = 100.
Still for that read-out and setting: the value for B13 was 129 parent B3 = 100; that for B14 was 156 parent B3 = 100.
With B15, the “Binding to human FcgRs (parent B3 = 100)” value amounted to 79 parent B3 = 100.
Same read-out and setting: the value for B16 was 38 parent B3 = 100.
The same measure, in the same setting: the value for B17 was 96 parent B3 = 100; that for B18 was 97 parent B3 = 100; that for B19 was 169 parent B3 = 100.
Turning to B20, the “Binding to human FcgRs (parent B3 = 100)” value came to 142 parent B3 = 100.
Still for that read-out and setting: the value for B21 was 172 parent B3 = 100.
On the same count and under the same terms, the value for B22 was 152 parent B3 = 100; that for B23 was 147 parent B3 = 100; that for B24 was 49 parent B3 = 100.
The same measure, in the same setting: the same measure for B25: 128 parent B3 = 100.
Turning to B26, the “Binding to human FcgRs (parent B3 = 100)” value came out at 99 parent B3 = 100.
For the molecule B27, the “Binding to human FcgRs (parent B3 = 100)” value came out at 151 parent B3 = 100.
Take B28: the “Binding to human FcgRs (parent B3 = 100)” value was 109 parent B3 = 100.
Same read-out and setting: the same measure for B29: 64 parent B3 = 100.

In the next test the target is T2, human FcγRIIaR extracellular domain, …. The test is described as above.
Consider B1, for which the “Binding to human FcgRs (parent B3 = 100)” value worked out at 81 parent B3 = 100.
Still for that read-out and setting: the value for B2 was 125 parent B3 = 100; that for B3 was 142 parent B3 = 100; that for B4 was 168 parent B3 = 100.
Same read-out and setting: the value for B5 was 4 parent B3 = 100; that for B6 was 0 parent B3 = 100; that for B7 was 127 parent B3 = 100.
Same read-out and setting: the same measure for B8: 128 parent B3 = 100; for B9: 131 parent B3 = 100; for B10: 75 parent B3 = 100.
On to B11, for which the “Binding to human FcgRs (parent B3 = 100)” value is 137 parent B3 = 100.
As for B12, the “Binding to human FcgRs (parent B3 = 100)” value was 12 parent B3 = 100.
On to B13, for which the “Binding to human FcgRs (parent B3 = 100)” value is 139 parent B3 = 100.
Still for that read-out and setting: the value for B14 was 135 parent B3 = 100.
On to B15, for which the “Binding to human FcgRs (parent B3 = 100)” value turned out to be 71 parent B3 = 100.
For B16, the “Binding to human FcgRs (parent B3 = 100)” value amounted to 50 parent B3 = 100.
Same read-out and setting: the value for B17 was 67 parent B3 = 100; that for B18 was 72 parent B3 = 100; that for B19 was 132 parent B3 = 100.
Consider B20, for which the “Binding to human FcgRs (parent B3 = 100)” value was 131 parent B3 = 100.
Still for that read-out and setting: the same measure for B21: 132 parent B3 = 100; for B22: 130 parent B3 = 100; for B23: 161 parent B3 = 100.
For B24, the “Binding to human FcgRs (parent B3 = 100)” value came out at 13 parent B3 = 100.
On the same count and under the same terms, the same measure for B25: 148 parent B3 = 100.
Same read-out and setting: the same measure for B26: 80 parent B3 = 100; for B27: 127 parent B3 = 100.
For the molecule B28, the “Binding to human FcgRs (parent B3 = 100)” value turned out to be 91 parent B3 = 100.
Same read-out and setting: the same measure for B29: 63 parent B3 = 100.

For another test, the target named is T3, human FcγRIIb extracellular domain, …. Described as above.
Regarding B1, the “Binding to human FcgRs (parent B3 = 100)” value is 75 parent B3 = 100.
As for B2, the “Binding to human FcgRs (parent B3 = 100)” value was determined as 283 parent B3 = 100.
Same read-out and setting: the value for B3 was 307 parent B3 = 100.
Same read-out and setting: the same measure for B4: 94 parent B3 = 100; for B5: 43 parent B3 = 100; for B6: 95 parent B3 = 100.
Still for that read-out and setting: the same measure for B7: 195 parent B3 = 100.
As for B8, the “Binding to human FcgRs (parent B3 = 100)” value is 130 parent B3 = 100.
On the same count and under the same terms, the value for B9 was 160 parent B3 = 100; that for B10 was 108 parent B3 = 100.
As to B11, the “Binding to human FcgRs (parent B3 = 100)” value was determined as 174 parent B3 = 100.
Same read-out and setting: the value for B12 was 46 parent B3 = 100.
With B13, the “Binding to human FcgRs (parent B3 = 100)” value was found to be 198 parent B3 = 100.
The same measure, in the same setting: the same measure for B14: 179 parent B3 = 100; for B15: 107 parent B3 = 100; for B16: 55 parent B3 = 100.
B17: the “Binding to human FcgRs (parent B3 = 100)” value turned out to be 100 parent B3 = 100.
Same read-out and setting: the same measure for B18: 108 parent B3 = 100; for B19: 283 parent B3 = 100; for B20: 117 parent B3 = 100.
Same read-out and setting: the same measure for B21: 184 parent B3 = 100; for B22: 252 parent B3 = 100; for B23: 87 parent B3 = 100.
On the same count and under the same terms, the value for B24 was 40 parent B3 = 100; that for B25 was 156 parent B3 = 100; that for B26 was 124 parent B3 = 100.
For B27, the “Binding to human FcgRs (parent B3 = 100)” value turned out to be 148 parent B3 = 100.
In the case of B28, the “Binding to human FcgRs (parent B3 = 100)” value was 212 parent B3 = 100.
For the molecule B29, the “Binding to human FcgRs (parent B3 = 100)” value came to 90 parent B3 = 100.

The values above are taken from patent US20200317768A1 (published 2020).
